Biological target: Purified native (non-tagged) D. radiodurans DR1245 protein (D. radiodurans)
Assay: SEC; Sephacryl S-300 16/60 HR gel filtration column of purified native DR1245

Purified native (non-tagged) D. radiodurans DR1245 protein (natural protein)
stoichiometry N: 2
